Ends that are not written are not given here.
Biological target: transferrin receptor (TfR) (UniProt P02786 89-760, limits assumed)
Experiment: phage-based ELISA (assay not given)

transferrin receptor (TfR), sequence (P02786 89-760 limits assumed): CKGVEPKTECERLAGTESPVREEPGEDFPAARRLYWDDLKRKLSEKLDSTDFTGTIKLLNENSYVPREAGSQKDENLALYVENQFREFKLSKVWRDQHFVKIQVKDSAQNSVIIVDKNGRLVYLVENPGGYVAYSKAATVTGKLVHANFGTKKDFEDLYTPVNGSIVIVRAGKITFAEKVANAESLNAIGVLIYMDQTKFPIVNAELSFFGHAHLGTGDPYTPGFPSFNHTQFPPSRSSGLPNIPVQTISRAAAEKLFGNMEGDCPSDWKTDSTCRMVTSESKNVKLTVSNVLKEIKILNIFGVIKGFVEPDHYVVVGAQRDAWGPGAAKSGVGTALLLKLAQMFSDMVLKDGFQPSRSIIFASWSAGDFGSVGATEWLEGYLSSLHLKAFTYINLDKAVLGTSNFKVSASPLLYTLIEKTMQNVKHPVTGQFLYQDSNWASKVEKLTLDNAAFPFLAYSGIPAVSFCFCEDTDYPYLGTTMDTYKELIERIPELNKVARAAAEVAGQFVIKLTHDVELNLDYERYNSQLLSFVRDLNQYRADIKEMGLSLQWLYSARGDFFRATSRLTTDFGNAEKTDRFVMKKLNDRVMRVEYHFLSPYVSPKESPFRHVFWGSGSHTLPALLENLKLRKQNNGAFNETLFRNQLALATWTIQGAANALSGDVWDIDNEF

B1: PSMA-3 peptide displayed on M13 phage (peptide, not shown: large carriers)
peptide: SECVEVFQNSCDW
modifications: not fully specified; cysteine pairing not given here
notes: Tested on phage in ELISA and as phage encapsulated in PEDOT nanowires; also called second generation peptide; PSMA-3 viruses
Question: Does B1 bind?
Answer: no binding

Reference: patent US8525237 (University of California, dated 2013)
